Data on two substances can be found in publication PMC6872814, “Functional interactions between nitrite reductase and nitric oxide reductase from Paracoccus denitrificans” (Scientific Reports, 2019).

Assay [1] deals with cytochrome c-dependent nitric oxide reductase (cNOR) from Paracoccus denitrificans, NorB and NorC, unlabelled (Paracoccus denitrificans) (UniProt Q51662).
The target is the same in assay [2]. The source holds these as a separate data set.
The target is the same in assay [3]. The source holds these as a separate data set.
For assay [4] the target is unchanged. This is another data set of the same source.

Sequence of horse heart cytochrome c (P00004 whole entry): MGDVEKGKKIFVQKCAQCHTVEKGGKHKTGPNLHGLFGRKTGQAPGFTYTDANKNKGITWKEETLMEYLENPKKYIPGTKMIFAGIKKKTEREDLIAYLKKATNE
Sequence of cytochrome c-dependent nitric oxide reductase (cNOR) from Paracoccus denitrificans, NorB and NorC, unlabelled (Paracoccus denitrificans) (Q51662 whole entry, looked up): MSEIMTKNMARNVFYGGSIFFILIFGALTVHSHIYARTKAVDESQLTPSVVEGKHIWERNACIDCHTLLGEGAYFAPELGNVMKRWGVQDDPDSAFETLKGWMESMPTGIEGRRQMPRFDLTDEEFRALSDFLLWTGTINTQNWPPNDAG
Sequence of cytochrome cd1 nitrite reductase (cd1NiR) from Paracoccus pantotrophus, labelled with Abberior STAR 635 (P72181 30-596): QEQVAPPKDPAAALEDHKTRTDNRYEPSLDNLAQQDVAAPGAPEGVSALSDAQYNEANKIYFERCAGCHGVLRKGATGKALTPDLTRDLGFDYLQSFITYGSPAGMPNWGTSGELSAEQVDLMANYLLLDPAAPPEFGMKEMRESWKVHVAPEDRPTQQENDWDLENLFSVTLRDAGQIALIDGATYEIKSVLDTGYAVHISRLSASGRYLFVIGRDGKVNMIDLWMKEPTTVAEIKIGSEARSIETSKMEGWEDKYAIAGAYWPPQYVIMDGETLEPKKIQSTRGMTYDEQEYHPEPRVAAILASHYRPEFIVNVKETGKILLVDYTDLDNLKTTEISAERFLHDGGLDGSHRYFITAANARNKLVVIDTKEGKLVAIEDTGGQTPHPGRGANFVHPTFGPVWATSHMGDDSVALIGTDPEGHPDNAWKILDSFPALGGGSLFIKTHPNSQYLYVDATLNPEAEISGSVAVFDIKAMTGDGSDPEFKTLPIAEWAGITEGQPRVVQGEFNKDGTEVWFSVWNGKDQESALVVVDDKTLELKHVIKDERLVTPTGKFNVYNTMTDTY

With “cytochrome cd1 nitrite reductase (cd1NiR) from Paracoccus pantotrophus, labelled with Abberior STAR 635 (from UniProt P72181 30-596) (enzyme)”, in assay [1], the relative kmax (kcat of the fit) of NO reduction by liposome-reconstituted cNOR in the presence of ~30 nM cd1NiR, cyt. c titration; control without cd1NiR = 100% amounted to 46%. Moreover, in assay [2], the inhibition of the maximum NO-reduction activity (kmax at ~5 µM NO) of 40 nM detergent-solubilized cNOR, cd1NiR 0-200 nM; the inhibition is released at higher cd1NiR came to 50%.
“horse heart cytochrome c (from UniProt P00004 1-105) (natural protein)”: in assay [3], the Km for cyt. c of NO reduction by cNOR in detergent (0.05% DDM) turned out to be 0.8 µM and the Km for cyt. c of NO reduction by liposome-reconstituted cNOR is 0.8 µM. In assay [4], the Km for cyt. c of NO reduction by liposome-reconstituted cNOR in the presence of ~30 nM cd1NiR (unchanged against the control) came to 0.15 µM and the Km for cyt. c of NO reduction by liposome-reconstituted cNOR, side-by-side control without cd1NiR stood at 0.2 µM.
